Experimental data taken from publication PMC2650715 (DNA repair, 2008).

Experiments:
Test in all cases: pull-down
[1] = molecular target: T1, Saccharomyces cerevisiae Rdh54 (S. cerevisiae, UniProt P38086 1-958)
T1 sequence (looked up): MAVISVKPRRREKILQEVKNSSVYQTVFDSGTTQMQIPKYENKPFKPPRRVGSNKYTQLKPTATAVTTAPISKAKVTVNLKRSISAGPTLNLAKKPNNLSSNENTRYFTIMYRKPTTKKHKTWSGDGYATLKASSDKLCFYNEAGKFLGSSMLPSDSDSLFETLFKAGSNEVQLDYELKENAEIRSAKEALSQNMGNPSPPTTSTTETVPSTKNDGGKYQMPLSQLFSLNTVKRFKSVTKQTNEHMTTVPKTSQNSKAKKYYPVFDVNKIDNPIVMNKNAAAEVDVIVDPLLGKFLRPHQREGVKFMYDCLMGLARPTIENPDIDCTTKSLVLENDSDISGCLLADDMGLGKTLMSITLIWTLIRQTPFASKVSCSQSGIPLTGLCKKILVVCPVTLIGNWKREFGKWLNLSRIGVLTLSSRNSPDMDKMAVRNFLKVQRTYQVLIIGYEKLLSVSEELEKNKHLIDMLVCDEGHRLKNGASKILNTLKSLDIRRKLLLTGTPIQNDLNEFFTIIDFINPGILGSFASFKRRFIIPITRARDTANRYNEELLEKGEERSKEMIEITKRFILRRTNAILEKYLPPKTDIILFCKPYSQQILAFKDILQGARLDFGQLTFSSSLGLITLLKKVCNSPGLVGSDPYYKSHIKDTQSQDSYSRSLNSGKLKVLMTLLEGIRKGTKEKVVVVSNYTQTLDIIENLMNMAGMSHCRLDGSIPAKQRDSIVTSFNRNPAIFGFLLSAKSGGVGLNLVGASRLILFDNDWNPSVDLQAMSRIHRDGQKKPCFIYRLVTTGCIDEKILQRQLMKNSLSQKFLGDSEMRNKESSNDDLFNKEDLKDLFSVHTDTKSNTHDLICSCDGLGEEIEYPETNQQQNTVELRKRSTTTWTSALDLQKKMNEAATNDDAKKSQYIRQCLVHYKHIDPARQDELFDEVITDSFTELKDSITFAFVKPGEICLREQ

[2] = molecular target: T2, Saccharomyces cerevisiae Rdh54 K352R mutant variant (S. cerevisiae, UniProt P38086 1-958, K352R)
T2 sequence (looked up): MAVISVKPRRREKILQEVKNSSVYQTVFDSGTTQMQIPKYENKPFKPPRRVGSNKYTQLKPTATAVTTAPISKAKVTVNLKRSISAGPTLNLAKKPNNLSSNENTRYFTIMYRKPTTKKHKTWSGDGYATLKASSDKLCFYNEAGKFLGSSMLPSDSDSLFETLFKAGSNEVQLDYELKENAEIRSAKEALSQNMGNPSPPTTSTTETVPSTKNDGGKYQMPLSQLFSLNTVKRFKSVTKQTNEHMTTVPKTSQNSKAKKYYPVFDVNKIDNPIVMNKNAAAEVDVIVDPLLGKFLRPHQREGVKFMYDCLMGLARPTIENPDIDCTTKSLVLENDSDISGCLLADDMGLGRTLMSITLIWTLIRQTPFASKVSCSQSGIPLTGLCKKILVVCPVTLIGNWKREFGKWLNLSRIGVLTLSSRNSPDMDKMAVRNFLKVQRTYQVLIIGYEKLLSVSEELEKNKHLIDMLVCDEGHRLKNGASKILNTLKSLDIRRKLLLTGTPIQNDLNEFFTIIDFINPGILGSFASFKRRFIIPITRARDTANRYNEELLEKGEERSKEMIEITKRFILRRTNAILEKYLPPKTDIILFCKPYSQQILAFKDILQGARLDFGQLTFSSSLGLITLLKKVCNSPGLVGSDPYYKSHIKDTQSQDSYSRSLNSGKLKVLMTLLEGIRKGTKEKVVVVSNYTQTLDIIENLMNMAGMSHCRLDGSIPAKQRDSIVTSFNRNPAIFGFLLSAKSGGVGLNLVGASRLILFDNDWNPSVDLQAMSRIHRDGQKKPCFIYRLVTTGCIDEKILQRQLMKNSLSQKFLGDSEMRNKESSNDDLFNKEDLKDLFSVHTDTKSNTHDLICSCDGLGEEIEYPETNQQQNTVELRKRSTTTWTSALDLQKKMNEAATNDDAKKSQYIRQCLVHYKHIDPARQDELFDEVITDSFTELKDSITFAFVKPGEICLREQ

[3] = molecular target: T3, Schizosaccharomyces pombe Rdh54 (S. pombe, UniProt Q09772 1-811)
T3 sequence (looked up): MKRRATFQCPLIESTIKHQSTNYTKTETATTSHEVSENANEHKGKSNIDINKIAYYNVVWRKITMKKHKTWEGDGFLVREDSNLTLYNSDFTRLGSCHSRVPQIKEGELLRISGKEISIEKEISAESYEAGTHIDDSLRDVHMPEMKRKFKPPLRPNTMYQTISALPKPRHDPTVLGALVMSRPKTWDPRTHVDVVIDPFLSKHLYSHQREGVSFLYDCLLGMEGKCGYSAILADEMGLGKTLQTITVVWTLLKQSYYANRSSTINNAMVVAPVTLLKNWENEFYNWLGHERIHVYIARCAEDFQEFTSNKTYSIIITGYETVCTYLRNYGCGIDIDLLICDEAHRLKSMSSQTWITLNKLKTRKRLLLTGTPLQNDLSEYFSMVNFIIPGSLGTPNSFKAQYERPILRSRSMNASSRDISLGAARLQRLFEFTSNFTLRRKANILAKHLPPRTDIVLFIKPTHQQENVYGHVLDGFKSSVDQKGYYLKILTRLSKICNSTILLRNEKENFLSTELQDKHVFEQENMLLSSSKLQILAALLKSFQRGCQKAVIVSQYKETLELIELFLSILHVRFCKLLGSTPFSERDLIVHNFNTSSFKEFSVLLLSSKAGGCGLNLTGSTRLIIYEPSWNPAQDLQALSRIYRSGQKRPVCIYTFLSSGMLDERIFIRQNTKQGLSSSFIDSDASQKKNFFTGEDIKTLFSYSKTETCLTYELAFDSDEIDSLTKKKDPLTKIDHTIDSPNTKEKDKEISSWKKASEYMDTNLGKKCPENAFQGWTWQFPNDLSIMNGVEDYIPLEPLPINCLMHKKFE

Measured: binding result

B1: Schizosaccharomyces pombe Dmc1 (enzyme, S. pombe, UniProt O42634 1-332, looked up)
chain: MEEFAEGNDDEQMIFSDIEDLTAHGIGMTDIIKLKQAGVCTVQGVHMSTKRFLLKIKGFSEAKVDKLKEAASKMCPANFSTAMEISQNRKKVWSISTGSEALNGILGGGIQSMSITEVFGEFRCGKTQMSHTLCVTAQLPRDMGGAEGKVAFIDTEGTFRPDRIKAIAERFGVDADQAMENIIVSRAYNSEQQMEYITKLGTIFAEDGQYRLLIVDSIMALFRVDYSGRGELSERQQKLNIMLARLNHISEEFNVAVFVTNQVQADPGAAMMFASNDRKPVGGHVMAHASATRLLLRKGRGEERVAKLNDSPDMPEAECSYVITPGGIADVS
modifications: covalently coupled to Affi-Gel 15 beads
binds: [1] | [2] | [3]
